In the Human Domainome abundance scans (Beltran et al. 2025):
± gives the uncertainty stated by the source.

B1: Calcium-binding protein 2, residues 155 to 219; numbered along this chain, Q9NPB3 (parent)
chain: RELRDAFREFDTNGDGRISVGELRAALKALLGERLSQREVDEILQDVDLNGDGLVDFEEFVRMMS

Variants of: B1
Experiment: abundance fitness (aPCA) (normalised: wild type 0, dead -1); higher = more abundant; growth selection in yeast, the domain comes from the species named
Conditions: Homo sapiens

Abundance fitness: each site, then its substitutions
E9: Q -0.032 ± 0.068; L -0.201 ± 0.051; M -0.135 ± 0.092; R 0.085 ± 0.048; T 0.039 ± 0.074; H -0.429 ± 0.37; W -0.416 ± 0.069; F -0.294 ± 0.16; V -0.03 ± 0.083; G -0.016 ± 0.095; P -0.451 ± 0.058; S -0.133 ± 0.046; D 0.003 ± 0.12; Y -0.244 ± 0.22; A -0.189 ± 0.071
T12: M -0.349 ± 0.087; Q -0.148 ± 0.13; P -0.695 ± 0.12; F -0.493 ± 0.18; L -0.279 ± 0.07; H 0.039 ± 0.23; K -0.03 ± 0.15; E -0.087 ± 0.13; R -0.201 ± 0.056; D -0.42 ± 0.13; N 0.007 ± 0.22; V -0.351 ± 0.072; C -0.148 ± 0.1; S -0.035 ± 0.072; W -0.538 ± 0.11; G -0.04 ± 0.054
D11: R -1.18 ± 0.11; L -0.937 ± 0.099; M -1.17 ± 0.21; T -0.769 ± 0.099; A -0.677 ± 0.057; H -1.17 ± 0.26; C -0.546 ± 0.11; Y -0.651 ± 0.3; E -0.972 ± 0.097; W -0.631 ± 0.095; S -0.633 ± 0.061; Q -0.434 ± 0.099; P -0.992 ± 0.13; K -1.16 ± 0.26; V -1.02 ± 0.092
R8: D 0.045 ± 0.12; M -0.043 ± 0.083; G -0.238 ± 0.096; I -0.156 ± 0.14; N -0.023 ± 0.19; A -0.04 ± 0.058; C -0.141 ± 0.23; S 0.01 ± 0.084; E -0.004 ± 0.1; Q -0.1 ± 0.087; V -0.162 ± 0.054; P -0.573 ± 0.06; Y -0.153 ± 0.23; K -0.068 ± 0.15; T 0.031 ± 0.11
G16: S -0.261 ± 0.055; I -1.2 ± 0.22; P -1.19 ± 0.13; W -0.454 ± 0.091; H -0.897 ± 0.39; V -1.14 ± 0.094; E -0.1 ± 0.1; Y -0.743 ± 0.33; L -0.669 ± 0.064; F -0.992 ± 0.31; M -0.376 ± 0.15; R -0.428 ± 0.06; C -0.527 ± 0.11; A -0.332 ± 0.046; D 0.023 ± 0.12; Q -0.223 ± 0.065
G14: Q 0.023 ± 0.077; R -0.018 ± 0.058; K 0.003 ± 0.11; T -0.547 ± 0.12; L -0.226 ± 0.079; S -0.198 ± 0.083; M -0.308 ± 0.11; C -0.264 ± 0.18; P -0.621 ± 0.081; D -0.188 ± 0.17; V -0.672 ± 0.067; E -0.165 ± 0.14; W -0.718 ± 0.081
I18: A -0.736 ± 0.095
F10: T -0.144 ± 0.096; S -0.148 ± 0.074; L -0.449 ± 0.062; P -0.864 ± 0.079; H 0.09 ± 0.065; I -0.038 ± 0.11; C -0.143 ± 0.079; V -0.048 ± 0.065; D -1.13 ± 0.17; M -0.426 ± 0.12; K -0.155 ± 0.12; W -0.076 ± 0.11; R -0.1 ± 0.059; G -0.417 ± 0.081; A 0.11 ± 0.071; Q 0.156 ± 0.083; E -0.445 ± 0.059
N13: M -0.797 ± 0.093; H -0.644 ± 0.087; C -0.489 ± 0.26; E -0.459 ± 0.1; L -0.974 ± 0.1; T -0.404 ± 0.095; R -0.477 ± 0.076; V -0.668 ± 0.071; P -0.811 ± 0.093; Q -0.924 ± 0.14; S -0.555 ± 0.09; G -0.693 ± 0.12; Y -1.12 ± 0.34; D -0.019 ± 0.11; A -0.537 ± 0.084; K -0.676 ± 0.13
A6: S -0.011 ± 0.087; N 0.042 ± 0.21; W -0.111 ± 0.053; T 0.173 ± 0.061; L -0.008 ± 0.048; R 0.089 ± 0.044; K 0.157 ± 0.088; H -0.479 ± 0.2; G -0.328 ± 0.048; P -0.952 ± 0.1; V 0.026 ± 0.06
F7: K -1.12 ± 0.12; C -0.422 ± 0.1; V -0.891 ± 0.078; H -1.18 ± 0.35; E -0.841 ± 0.1; M -0.33 ± 0.072; T -0.713 ± 0.096; W -0.142 ± 0.053; I -0.644 ± 0.12; G -1.03 ± 0.058; Y -0.259 ± 0.12; Q -0.803 ± 0.13; P -0.997 ± 0.11; N -1.44 ± 0.4; R -0.995 ± 0.062
R17: K 0.017 ± 0.11; M -0.099 ± 0.096; E -0.295 ± 0.1; T -0.217 ± 0.074; C 0.141 ± 0.088; Q -0.193 ± 0.11; N -0.14 ± 0.47; V -0.158 ± 0.053; F -0.021 ± 0.16; A 0.001 ± 0.058; I -0.141 ± 0.12; Y -0.02 ± 0.29; W -0.159 ± 0.067; S -0.087 ± 0.078; L 0.045 ± 0.066; G 0.045 ± 0.055; P -0.701 ± 0.082
